Consider seven molecules from patent publication US20150299305A1 (Alexion, published 2015).

The target in test [1] is T1, human complement component C5 (human, UniProt P01031 19-673; P01031 678-1676).
T1 construct: mature; Native purified protein; also called human C5; hC5
Nature of the test: SPR, pH 6.0. A general note: SPR reads the build-up and loss of mass on a sensor chip optically.

Test [2] has as its target T1, human complement component C5. Nature of the test: SPR.
Test [3] shares this target. Put plainly: SPR, pH 7.4.
The target of a further test is complement component C1q (UniProt P02745 23-245; P02746 28-253; P02747 29-245). Nature of the test: biolayer interferometry. For orientation: In BLI a coated tip is dipped into the sample, and binding shifts an interference pattern.
Sequence of complement component C1q (P02745 23-245, chain 1 of 3): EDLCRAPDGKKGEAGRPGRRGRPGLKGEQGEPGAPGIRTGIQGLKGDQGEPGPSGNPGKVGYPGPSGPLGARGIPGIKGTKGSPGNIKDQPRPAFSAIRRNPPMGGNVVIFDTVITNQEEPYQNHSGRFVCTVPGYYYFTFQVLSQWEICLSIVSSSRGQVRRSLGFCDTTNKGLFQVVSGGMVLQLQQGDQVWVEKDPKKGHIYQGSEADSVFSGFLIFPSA
Sequence of complement component C1q (P02746 28-253, chain 2 of 3): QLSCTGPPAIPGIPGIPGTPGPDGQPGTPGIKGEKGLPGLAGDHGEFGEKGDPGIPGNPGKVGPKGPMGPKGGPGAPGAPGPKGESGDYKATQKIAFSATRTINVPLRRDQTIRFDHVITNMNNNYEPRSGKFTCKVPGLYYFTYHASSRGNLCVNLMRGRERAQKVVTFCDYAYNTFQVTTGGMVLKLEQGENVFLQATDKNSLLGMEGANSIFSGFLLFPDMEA
Sequence of complement component C1q (P02747 29-245, chain 3 of 3): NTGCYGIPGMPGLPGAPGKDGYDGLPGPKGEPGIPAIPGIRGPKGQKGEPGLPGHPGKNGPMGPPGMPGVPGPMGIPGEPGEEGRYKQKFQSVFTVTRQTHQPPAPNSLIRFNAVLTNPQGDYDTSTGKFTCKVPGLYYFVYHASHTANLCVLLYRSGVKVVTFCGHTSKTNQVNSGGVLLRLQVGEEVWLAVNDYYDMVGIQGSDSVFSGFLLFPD
For test [4], the target named is T2, Human FcγRI (CD64) (human, UniProt P12314 16-288, limits assumed).
T2 construct: Bought reagent; also called FcγR1; not shown: 6x histidine tag
T2 sequence (P12314 16-288 limits assumed): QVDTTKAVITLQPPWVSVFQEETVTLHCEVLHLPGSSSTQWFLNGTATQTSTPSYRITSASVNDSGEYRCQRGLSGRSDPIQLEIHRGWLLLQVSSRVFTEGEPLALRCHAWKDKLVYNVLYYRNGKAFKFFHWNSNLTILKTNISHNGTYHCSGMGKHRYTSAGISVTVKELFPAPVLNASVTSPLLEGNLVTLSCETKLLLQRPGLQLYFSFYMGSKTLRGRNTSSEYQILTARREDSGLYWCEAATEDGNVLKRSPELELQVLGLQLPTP
Nature of the test: SPR, antibody immobilized, monomeric FcγR injected, steady state, pH 7.4; SPR, monomeric FcγR.

For test [5], the target named is T3, Human FcγRIIb/c (CD32b/c) (human, UniProt P31994 46-217, limits assumed).
T3 construct: Bought reagent; not shown: 6x histidine tag
T3 sequence (looked up): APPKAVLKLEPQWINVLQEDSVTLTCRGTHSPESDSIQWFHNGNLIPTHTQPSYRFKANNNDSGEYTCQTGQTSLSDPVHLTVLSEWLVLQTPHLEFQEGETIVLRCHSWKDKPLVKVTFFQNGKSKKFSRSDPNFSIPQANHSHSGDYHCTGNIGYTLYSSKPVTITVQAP
The description is as above.

For test [6], the target named is T4, Human FcγRIIIb (CD16b) (human, UniProt O75015 17-200, limits assumed).
T4 construct: Bought reagent; not shown: 6x histidine tag
T4 sequence (O75015 17-200 limits assumed): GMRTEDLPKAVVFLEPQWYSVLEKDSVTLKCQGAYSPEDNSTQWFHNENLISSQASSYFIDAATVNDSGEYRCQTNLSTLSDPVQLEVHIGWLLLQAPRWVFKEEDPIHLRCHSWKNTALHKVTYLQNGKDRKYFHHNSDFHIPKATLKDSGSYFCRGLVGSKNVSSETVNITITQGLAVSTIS
Described as above.

In test [7] the target is T5, Human FcγRIIIa (CD16a) (human, UniProt P08637 17-208, limits assumed).
T5 construct: Bought reagent; not shown: 6x histidine tag
T5 sequence (P08637 17-208 limits assumed): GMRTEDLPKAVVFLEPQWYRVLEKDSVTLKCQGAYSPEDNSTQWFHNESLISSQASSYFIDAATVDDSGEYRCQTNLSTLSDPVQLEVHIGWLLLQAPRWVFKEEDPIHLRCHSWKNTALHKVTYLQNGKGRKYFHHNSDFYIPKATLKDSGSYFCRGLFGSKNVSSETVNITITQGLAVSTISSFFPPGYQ
The test is described as above.

Test [8] has as its target T6, human neonatal Fc receptor (FcRn) (human, UniProt P55899 24-297; P61769 21-119, limits assumed).
T6 construct: also called hFcRn; human FcRn
Put plainly: SPR, F(ab')2 capture, pH 6.0.
From the text: The data were processed with a 1:1 Langmuir model using BIAevaluation 4.1 software (BIAcore AB, Uppsala, Sweden) with ‘double referencing’.

Test [9] addresses T7, Human FcγRIIa (CD32a) (human, UniProt P12318 36-218, limits assumed).
T7 construct: Bought reagent; not shown: 6x histidine tag
T7 sequence (looked up): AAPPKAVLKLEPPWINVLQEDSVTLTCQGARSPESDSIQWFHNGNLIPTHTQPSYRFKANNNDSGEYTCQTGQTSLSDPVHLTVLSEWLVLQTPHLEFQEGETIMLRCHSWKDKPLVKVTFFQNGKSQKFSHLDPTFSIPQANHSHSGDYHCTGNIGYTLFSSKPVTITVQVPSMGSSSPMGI
Put plainly: ELISA, multimeric antibody immune complexes on His-tagged FcγRIIa; reference not named (IgG1 control implied). (In general: In an ELISA, binding on a coated surface is turned into a signal by an enzyme label.)

Test [10] concerns the target T7, Human FcγRIIa (CD32a). Nature of the test: SPR, antibody immobilized, monomeric FcγR injected, steady state, pH 7.4.
Method: (§1) A second flow cell was used as a reference surface. Concentrations of FcγRs diluted in running buffer (HBS-EP, pH 7.4) were injected on both cells. The surface was regenerated each cycle with 20 mM HCl, 0.01% P20. The data was analyzed using a steady state affinity model in BIAevaluation 4.1 software (BIAcore AB, Uppsala, Sweden) with ‘double referencing’.
Test [11] has as its target T3, Human FcγRIIb/c (CD32b/c). The test is described as above.
Method: as §1
Test [12] deals with T4, Human FcγRIIIb (CD16b). The description is as above.
Method: as §1
Test [13] concerns the target T5, Human FcγRIIIa (CD16a). Described as above.
Method: as §1
Test [14] concerns the target T2, Human FcγRI (CD64). Put plainly: SPR, antibody immobilized, single cycle kinetics, pH 7.4; Table 16 cell under the head KD [µM].
Method: The antibody was diluted in 10 mM sodium acetate at pH 5.0 and directly immobilized on one flow cell of a CM5 chip by amine coupling. A second flow cell was used as a reference surface. Concentrations of FcγR1 diluted in running buffer (HBS-EP, pH 7.4) were injected on both cells. This assay required no regeneration. The data was analyzed using a titration kinetics 1:1 model in BIAevaluation 4.1 (Biacore AB, Uppsala, Sweden) software with ‘double referencing’.
In test [15] the target is T8, human hypercalcemia of malignancy peptide, amino acid residues 1-34 (human, UniProt P12272 37-70).
T8 construct: range 1-34; Negative control material on UV-resin spot slides; also called PTHrP 1-34
Put plainly: immunofluorescent staining of UV-resin spot slides.

The target in a further test is T9, mouse C5 (mouse, UniProt P06684 19-674; P06684 679-1680).
T9 construct: also called purified mouse C5
T9 sequence (P06684 19-674 limits assumed, chain 1 of 2): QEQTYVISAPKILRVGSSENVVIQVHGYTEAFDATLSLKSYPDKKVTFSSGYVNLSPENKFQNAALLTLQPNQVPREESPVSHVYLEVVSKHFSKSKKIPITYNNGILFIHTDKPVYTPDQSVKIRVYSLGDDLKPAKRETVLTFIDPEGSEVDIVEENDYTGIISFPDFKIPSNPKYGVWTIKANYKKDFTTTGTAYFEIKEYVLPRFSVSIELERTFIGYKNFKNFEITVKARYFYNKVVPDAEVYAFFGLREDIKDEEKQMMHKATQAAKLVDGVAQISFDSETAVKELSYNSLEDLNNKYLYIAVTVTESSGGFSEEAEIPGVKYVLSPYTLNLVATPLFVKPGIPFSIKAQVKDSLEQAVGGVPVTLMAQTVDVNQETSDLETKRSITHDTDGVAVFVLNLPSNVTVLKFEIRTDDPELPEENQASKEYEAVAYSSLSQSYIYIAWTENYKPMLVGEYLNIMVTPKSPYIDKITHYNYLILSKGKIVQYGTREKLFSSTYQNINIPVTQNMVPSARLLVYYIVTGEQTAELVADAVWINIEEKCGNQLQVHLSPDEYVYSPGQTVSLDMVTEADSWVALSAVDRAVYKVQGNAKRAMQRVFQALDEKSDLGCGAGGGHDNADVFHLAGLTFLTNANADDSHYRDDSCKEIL
T9 sequence (P06684 679-1680 limits assumed, chain 2 of 2): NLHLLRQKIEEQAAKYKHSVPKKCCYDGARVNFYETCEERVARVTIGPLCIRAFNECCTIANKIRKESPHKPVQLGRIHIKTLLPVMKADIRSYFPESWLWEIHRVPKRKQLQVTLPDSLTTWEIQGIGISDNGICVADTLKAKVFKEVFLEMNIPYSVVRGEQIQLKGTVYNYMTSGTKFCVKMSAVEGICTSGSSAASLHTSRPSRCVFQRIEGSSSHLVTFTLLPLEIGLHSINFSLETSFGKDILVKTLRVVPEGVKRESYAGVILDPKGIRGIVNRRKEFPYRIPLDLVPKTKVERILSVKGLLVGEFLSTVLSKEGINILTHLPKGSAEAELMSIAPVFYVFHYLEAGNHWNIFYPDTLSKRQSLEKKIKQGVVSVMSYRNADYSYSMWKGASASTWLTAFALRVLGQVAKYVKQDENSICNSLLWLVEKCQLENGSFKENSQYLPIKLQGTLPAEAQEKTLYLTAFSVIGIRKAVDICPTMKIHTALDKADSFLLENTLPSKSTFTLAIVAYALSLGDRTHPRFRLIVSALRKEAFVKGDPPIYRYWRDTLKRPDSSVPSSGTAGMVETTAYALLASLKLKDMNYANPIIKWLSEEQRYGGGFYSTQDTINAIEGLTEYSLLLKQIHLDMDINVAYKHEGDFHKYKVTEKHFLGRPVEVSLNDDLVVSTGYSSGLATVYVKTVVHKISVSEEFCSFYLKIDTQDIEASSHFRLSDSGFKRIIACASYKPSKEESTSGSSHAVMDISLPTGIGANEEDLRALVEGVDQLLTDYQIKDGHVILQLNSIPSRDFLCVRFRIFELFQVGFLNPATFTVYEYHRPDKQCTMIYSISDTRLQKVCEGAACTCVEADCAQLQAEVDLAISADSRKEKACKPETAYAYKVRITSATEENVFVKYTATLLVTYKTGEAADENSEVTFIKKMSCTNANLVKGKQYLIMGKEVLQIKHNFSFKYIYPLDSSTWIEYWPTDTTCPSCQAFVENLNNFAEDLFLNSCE
Nature of the test: SPR, anti-Fc capture, pH 7.4; pH 7.4.

T6 sequence (P55899 24-297 limits assumed, chain 1 of 2): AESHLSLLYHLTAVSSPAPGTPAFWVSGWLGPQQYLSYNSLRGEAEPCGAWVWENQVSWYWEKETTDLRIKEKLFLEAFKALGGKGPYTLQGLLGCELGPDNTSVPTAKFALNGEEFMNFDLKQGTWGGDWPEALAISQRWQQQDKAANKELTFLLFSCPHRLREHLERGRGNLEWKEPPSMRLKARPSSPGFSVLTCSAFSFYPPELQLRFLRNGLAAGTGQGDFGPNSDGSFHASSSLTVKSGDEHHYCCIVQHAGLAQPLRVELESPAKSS
T6 sequence (P61769 21-119 limits assumed, chain 2 of 2): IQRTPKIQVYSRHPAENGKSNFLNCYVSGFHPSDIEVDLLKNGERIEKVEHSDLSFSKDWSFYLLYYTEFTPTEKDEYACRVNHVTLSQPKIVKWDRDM
Method for mouse C5: Briefly, anti-human Fc (KPL, catalogue number: 01-10-20) diluted to 0.1 mg/mL in 10 mM sodium acetate pH 5.0, was immobilized on two flow cells of a CM5 chip for 8 minutes by amine coupling. The antibodies were diluted to 0.25 μg/mL in running buffer (HBS-EP; 0.01 M HEPES pH 7.4, 0.15 M NaCl, 3 mM EDTA, 0.005% v/v Surfactant P20; GE Life Sciences, catalogue number: BR1001-88). The diluted antibody was then injected on one flow cell followed by an injection of 6 nM mouse C5 on both cells. The second flow cell was used as a reference surface. The binding was evaluated at pH 7.4 and pH 6.0. The surface was regenerated each time with 20 mM HCl, 0.01% P20. The data was processed with a 1:1 Langmuir model using BIAevaluation 4.1 software with ‘double referencing’.

B1: EHL004 (antibody, V domains shown)
VH: QVQLVQSGAEVKKPGASVKVSCKASGYIFSNYWIQWVRQAPGQGLEWMGEILPGSGHTEYTENFKDRVTMTRDTSTSTVYMELSSLRSEDTAVYYCARYFFGSSPNWYFDVWGQGTLVTVSS
VL: DIQMTQSPSSLSASVGDRVTITCGASENIYHALNWYQQKPGKAPKLLIYGATNLADGVPSRFSGSGSGTDFTLTISSLQPEDFATYYCQNVLNTPLTFGQGTKVEIK
notes: The VH cell prints only 'S57H'
Take B1: the Kd (in general, the equilibrium constant for the complex coming apart) in test [1] stood at 374 nM; in test [3], 0.135 nM. Besides, the “ratio of KD at pH 6.0/pH 7.4” value in test [2] amounted to 2770.

B2: BNJ441 (antibody, human IgG2, kappa)
heavy: QVQLVQSGAEVKKPGASVKVSCKASGHIFSNYWIQWVRQAPGQGLEWMGEILPGSGHTEYTENFKDRVTMTRDTSTSTVYMELSSLRSEDTAVYYCARYFFGSSPNWYFDVWGQGTLVTVSSASTKGPSVFPLAPCSRSTSESTAALGCLVKDYFPEPVTVSWNSGALTSGVHTFPAVLQSSGLYSLSSVVTVPSSNFGTQTYTCNVDHKPSNTKVDKTVERKCCVECPPCPAPPVAGPSVFLFPPKPKDTLMISRTPEVTCVVVDVSQEDPEVQFNWYVDGVEVHNAKTKPREEQFNSTYRVVSVLTVLHQDWLNGKEYKCKVSNKGLPSSIEKTISKAKGQPREPQVYTLPPSQEEMTKNQVSLTCLVKGFYPSDIAVEWESNGQPENNYKTTPPVLDSDGSFFLYSRLTVDKSRWQEGNVFSCSVLHEALHSHYTQKSLSLSLGK
light: DIQMTQSPSSLSASVGDRVTITCGASENIYGALNWYQQKPGKAPKLLIYGATNLADGVPSRFSGSGSGTDFTLTISSLQPEDFATYYCQNVLNTPLTFGQGTKVEIKRTVAAPSVFIFPPSDEQLKSGTASVVCLLNNFYPREAKVQWKVDNALQSGNSQESVTEQDSKDSTYSLSSTLTLSKADYEKHKVYACEVTHQGLSSPVTKSFNRGEC
notes: IgG2/G4, kappa; also called BNJ441 antibody; BNJ441 engineering batch
Consider B2, for which the binding result with complement component C1q is listed as “no binding”. For the same molecule, the Kd stood at 3750 nM with Human FcγRI (CD64) [4]; 8090 nM in [5]; 3330 nM with Human FcγRIIIb (CD16b) [6]; 7230 nM with Human FcγRIIIa (CD16a) [7]; 2310 nM with Human FcγRIIa (CD32a) [10]. The “fold increase in affinity compared to eculizumab” value in test [8] is approximately 10 fold. The fold weaker association in the test with Human FcγRIIa (CD32a) [9] was 4 fold.

B3: h5G1.1-IgG1 (antibody)
heavy: not shown
light: DIQMTQSPSSLSASVGDRVTITCGASENIYGALNWYQQKPGKAPKLLIYGATNLADGVPSRFSGSGSGTDFTLTISSLQPEDFATYYCQNVLNTPLTFGQGTKVEIKRTVAAPSVFIFPPSDEQLKSGTASVVCLLNNFYPREAKVQWKVDNALQSGNSQESVTEQDSKDSTYSLSSTLTLSKADYEKHKVYACEVTHQGLSSPVTKSFNRGEC
notes: IgG1 isotype antibody with the same humanized variable region as eculizumab; light chain identical to that of eculizumab and BNJ441; also called h5G1.1-hG1; IgG1 isotype control
As for B3, the Kd with Human FcγRIIa (CD32a) [10] came to 800 nM; in test [11], 3060 nM; with Human FcγRIIIb (CD16b) [12], 1890 nM; with Human FcγRIIIa (CD16a) [13], 850 nM; with Human FcγRI (CD64) [14] it was 0.123 nM.

B4: BNJ441-FITC (antibody, human IgG2, kappa)
heavy: QVQLVQSGAEVKKPGASVKVSCKASGHIFSNYWIQWVRQAPGQGLEWMGEILPGSGHTEYTENFKDRVTMTRDTSTSTVYMELSSLRSEDTAVYYCARYFFGSSPNWYFDVWGQGTLVTVSSASTKGPSVFPLAPCSRSTSESTAALGCLVKDYFPEPVTVSWNSGALTSGVHTFPAVLQSSGLYSLSSVVTVPSSNFGTQTYTCNVDHKPSNTKVDKTVERKCCVECPPCPAPPVAGPSVFLFPPKPKDTLMISRTPEVTCVVVDVSQEDPEVQFNWYVDGVEVHNAKTKPREEQFNSTYRVVSVLTVLHQDWLNGKEYKCKVSNKGLPSSIEKTISKAKGQPREPQVYTLPPSQEEMTKNQVSLTCLVKGFYPSDIAVEWESNGQPENNYKTTPPVLDSDGSFFLYSRLTVDKSRWQEGNVFSCSVLHEALHSHYTQKSLSLSLGK
light: DIQMTQSPSSLSASVGDRVTITCGASENIYGALNWYQQKPGKAPKLLIYGATNLADGVPSRFSGSGSGTDFTLTISSLQPEDFATYYCQNVLNTPLTFGQGTKVEIKRTVAAPSVFIFPPSDEQLKSGTASVVCLLNNFYPREAKVQWKVDNALQSGNSQESVTEQDSKDSTYSLSSTLTLSKADYEKHKVYACEVTHQGLSSPVTKSFNRGEC
modifications: fluoresceinated (FITC); sites not stated
notes: also called fluoresceinated BNJ441
Consider B4, for which the binding result in [15] is given as “no binding”.

B5: eculizumab (antibody, human IgG2, kappa)
heavy: QVQLVQSGAEVKKPGASVKVSCKASGYIFSNYWIQWVRQAPGQGLEWMGEILPGSGSTEYTENFKDRVTMTRDTSTSTVYMELSSLRSEDTAVYYCARYFFGSSPNWYFDVWGQGTLVTVSSASTKGPSVFPLAPCSRSTSESTAALGCLVKDYFPEPVTVSWNSGALTSGVHTFPAVLQSSGLYSLSSVVTVPSSNFGTQTYTCNVDHKPSNTKVDKTVERKCCVECPPCPAPPVAGPSVFLFPPKPKDTLMISRTPEVTCVVVDVSQEDPEVQFNWYVDGVEVHNAKTKPREEQFNSTYRVVSVLTVLHQDWLNGKEYKCKVSNKGLPSSIEKTISKAKGQPREPQVYTLPPSQEEMTKNQVSLTCLVKGFYPSDIAVEWESNGQPENNYKTTPPVLDSDGSFFLYSRLTVDKSRWQEGNVFSCSVMHEALHNHYTQKSLSLSLGK
light: DIQMTQSPSSLSASVGDRVTITCGASENIYGALNWYQQKPGKAPKLLIYGATNLADGVPSRFSGSGSGTDFTLTISSLQPEDFATYYCQNVLNTPLTFGQGTKVEIKRTVAAPSVFIFPPSDEQLKSGTASVVCLLNNFYPREAKVQWKVDNALQSGNSQESVTEQDSKDSTYSLSSTLTLSKADYEKHKVYACEVTHQGLSSPVTKSFNRGEC
notes: Humanized anti-human C5 antibody, hybrid human IgG2/G4 constant region, human kappa light chain; also called Ec293F
For B5, the binding result in the test with complement component C1q was “no binding”. Also, the Kd came to 9840 nM in test [5] and 2580 nM with Human FcγRIIa (CD32a) [10]. Also, the fold weaker association in the test with Human FcγRIIa (CD32a) [9] is 8 fold.

B6: BHL006 (antibody, human IgG2, kappa)
heavy: QVQLQQPGAELVRPGTSVKLSCKASGYTFTSSWMHWVKQRPGQGLEWIGVIDPHDSYTNYNQKFKGKATLTVDTSSSTAYMQLSSLTSEDSAVYYCARGGGSSYNRYFDVWGTGTTVTVSSASTKGPSVFPLAPCSRSTSESTAALGCLVKDYFPEPVTVSWNSGALTSGVHTFPAVLQSSGLYSLSSVVTVPSSNFGTQTYTCNVDHKPSNTKVDKTVERKCCVECPPCPAPPVAGPSVFLFPPKPKDTLMISRTPEVTCVVVDVSQEDPEVQFNWYVDGVEVHNAKTKPREEQFNSTYRVVSVLTVLHQDWLNGKEYKCKVSNKGLPSSIEKTISKAKGQPREPQVYTLPPSQEEMTKNQVSLTCLVKGFYPSDIAVEWESNGQPENNYKTTPPVLDSDGSFFLYSRLTVDKSRWQEGNVFSCSVMHEALHNHYTQKSLSLSLGK
light: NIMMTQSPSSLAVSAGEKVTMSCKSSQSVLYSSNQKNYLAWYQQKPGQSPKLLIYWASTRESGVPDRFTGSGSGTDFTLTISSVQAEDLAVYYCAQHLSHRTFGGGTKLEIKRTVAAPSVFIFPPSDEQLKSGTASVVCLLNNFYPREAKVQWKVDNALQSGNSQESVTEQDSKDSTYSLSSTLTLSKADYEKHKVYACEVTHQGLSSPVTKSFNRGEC
notes: BHL011 with three histidine substitutions in the murine variable regions; also called pH-dependent variant of BHL011
In the case of B6, in the test with mouse C5, the Kd stood at 3.49 nM; the koff (in general, the rate constant with which the complex falls apart) was found to be 0.00102 s⁻¹; the kon (commonly the rate constant with which the complex forms) amounted to 293000 M⁻¹ s⁻¹.

B7: BHL009 (antibody, human IgG2, kappa)
heavy: QVQLQQPGAELVRPGTSVKLSCKASGYTFTSSWMHWVKQRPGQGLEWIGVIDPHDSYTNYNQKFKGKATLTVDTSSSTAYMQLSSLTSEDSAVYYCARGGGSSYNRYFDVWGTGTTVTVSSASTKGPSVFPLAPCSRSTSESTAALGCLVKDYFPEPVTVSWNSGALTSGVHTFPAVLQSSGLYSLSSVVTVPSSNFGTQTYTCNVDHKPSNTKVDKTVERKCCVECPPCPAPPVAGPSVFLFPPKPKDTLMISRTPEVTCVVVDVSQEDPEVQFNWYVDGVEVHNAKTKPREEQFNSTYRVVSVLTVLHQDWLNGKEYKCKVSNKGLPSSIEKTISKAKGQPREPQVYTLPPSQEEMTKNQVSLTCLVKGFYPSDIAVEWESNGQPENNYKTTPPVLDSDGSFFLYSRLTVDKSRWQEGNVFSCSVLHEALHSHYTQKSLSLSLGK
light: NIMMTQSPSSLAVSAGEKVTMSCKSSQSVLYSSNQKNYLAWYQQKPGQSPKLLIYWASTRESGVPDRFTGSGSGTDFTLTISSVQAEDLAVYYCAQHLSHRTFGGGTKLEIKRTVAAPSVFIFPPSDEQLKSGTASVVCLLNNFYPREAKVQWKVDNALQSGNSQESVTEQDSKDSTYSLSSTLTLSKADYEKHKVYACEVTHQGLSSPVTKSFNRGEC
notes: BHL006 with M428L, N434S in the human heavy chain constant region
Take B7: in the test with mouse C5, the Kd is 4.19 nM, the koff is 0.00109 s⁻¹ and the association rate constant (kon) is 261000 M⁻¹ s⁻¹.
